B1: pRNA-HER2apt-siMED1: 3-WJ pRNA nanoparticle bearing a HER2-targeting RNA aptamer and two different MED1 siRNAs; strands p1 SEQ ID NO: 3, p2 SEQ ID NO: 4 (nucleic acid)
chain 1: GGACAGUGAAAGUGAGUCAAAGGAUCAAUCAUGGCCAAAGAUGUUACUUUGAGAGCCUU
chain 2: GGCUCUCAAAGUAACAUCUAAGGCCAUGUGUAUGUGGGGGGAGGACGAUGCGGUCUGCUGUGCUUGAUAUGCCCCAGACGACUCGCCCCCCACAUACUUUGUUGAUCCAAUGACUCACUUUCACUGUCCUU
modifications: 2'-F modification; third strand may lack entry; pRNA-HER2apt-siMED1, p1; pRNA-HER2apt-siMED1, p2
B2: pRNA-HER2apt^mut-siMED1: control pRNA nanoparticle with mutant HER2 aptamer; strands p1 SEQ ID NO: 5, p2 SEQ ID NO: 6 (nucleic acid)
chain 1: B1 chain 1
chain 2: GGCUCUCAAAGUAACAUCUAAGGCCAUGUGUAUGUGGGAUGAGGAGUAUGAAGAUACCUGUACUUGAUAUGCCCCAGACGACAUUCCCCCCACAUACUUUGUUGAUCCAAUGACUCACUUUCACUGUCCUU
modifications: pRNA-HER2apt(mut)-siMED1, p1; pRNA-HER2apt(mut)-siMED1, p2

System: MED1 mRNA
Assay: MED1 mRNA level by real-time PCR in BT474 cells
Format: cell-based, human
Settings: BT474, 10 μg/mL, 48 h, direct incubation
Protocol: FIG. 3A) BT474 cells were incubated with 10 μg/mL control and pRNA-HER2apt-siMED1 nanoparticles for 48 h, and MED1 mRNA level was determined by real-time PCR. FIG. 3B) BT474 cells were incubated directly with (as indicated by -) or transfected with indicated pRNAs using lipofectamine 2000. At 48 h post treatment, MED1 protein levels were determined by western blotting. FIG. 3C) BT474 cells were treated with 10 μg/mL pRNA nanoparticles for 48 h and assayed for cell viability by MTT assay. FIG. 3D) Cells were treated as above and seeded for migration, and FIG. 3E) invasion transwell assays. Scale bar: 50 μm. FIG. 3F) After pRNA treatment for 48 h, the mRNA levels of ERα target genes TFF-1, FIG. 3G) c-Myc, and FIG. 3H) cyclin D1 in BT474 cells were determined by real-time PCR.
Cell culture. […] The hydrodynamic diameter and Tm value of pRNA nanoparticles were determined using dynamic light scattering and TGGE assay, respectively, as previously described.^54 The AFM imaging of the pRNA nanoparticles was performed at the University of Nebraska Medical Center imaging facility as previously reported.^55 Briefly, the pRNA nanoparticles (5 μL) were deposited on APS modified mica ^56 for a total of 2 min of incubation time. […] After washing three times with PBS, the cellular uptake of pRNAs was determined using a BD LSRFortessa™ flow cytometer. • Real-time PCR. […]

Molecule	depletion of MED1 mRNA
B1	~70%
B2	not
